This note sets out measurements from US20160368965A1 (IMMATICS BIOTECHNOLOGIES, published 2016).

The target in this assay is T1, HLA-A*02:01 (human).
T1 construct: the tested peptide takes its place; also called peptide-receptive MHC molecules; MHC class I
The assay can be described thus: UV-ligand exchange, anti-β2m ELISA; grade of peptide exchange yield. The text has this:
Candidate peptides for T cell based therapies according to the present invention were further tested for their MHC binding capacity (affinity). The individual peptide-MHC complexes were produced by UV-ligand exchange, where a UV-sensitive peptide is cleaved upon UV-irradiation, and exchanged with the peptide of interest as analyzed. Only peptide candidates that can effectively bind and stabilize the peptide-receptive MHC molecules prevent dissociation of the MHC complexes. To determine the yield of the exchange reaction, an ELISA was performed based on the detection of the light chain (β2m) of stabilized MHC complexes. The assay was performed as generally described in Rodenko et al. (Rodenko et al., 2006).
96 well MAXISorp plates (NUNC) were coated over night with 2 ug/ml streptavidin in PBS at room temperature, washed 4× and blocked for 1h at 37° C. in 2% BSA containing blocking buffer. Refolded HLA-A*02:01/MLA-001 monomers served as standards, covering the range of 15-500 ng/ml. Peptide-MHC monomers of the UV-exchange reaction were diluted 100 fold in blocking buffer. Samples were incubated for 1 h at 37° C., washed four times, incubated with 2 ug/ml HRP conjugated anti-β2m for 1h at 37° C., washed again and detected with TMB solution that is stopped with […]. Absorption was measured at 450 nm. […]

B1: SLTEQVHSL (SEQ ID NO: 141) (peptide)
peptide: SLTEQVHSL
Regarding B1, the peptide exchange yield lay within 50 to 75%.
